The values below come from patent US20070048860A1.

Assay in all cases: cell-based or functional assay
Experiment [1] has as its target murine ICAM-1 (CD54) expressed on MC38 cells infected with rV-ICAM-1 (murine) (UniProt P13597).
For experiment [2], the target named is murine LFA-3 (CD48) expressed on MC38 cells infected with rV-LFA-3 (murine) (UniProt P18181).
Experiment [3] deals with murine B7-1 (CD80) expressed on MC38 cells infected with rV-B7-1 (murine) (UniProt Q00609).

“Hamster anti-murine CD54 (ICAM-1; clone 3E2) (antibody)” gave a reduction of the increased T-cell proliferation supported by MC38/ICAM-1 (Con A, 3H-thymidine) in experiment [1] of 88%.
For “Hamster anti-murine CD48 (BCM-1 clone HM48-1) (antibody)”, in experiment [2], the reduction of the increased T-cell proliferation supported by MC38/LFA-3 (Con A, 3H-thymidine) turned out to be 98%.
In experiment [3], “Hamster anti-murine CD80 (B7-1; clone 16-10A1) (antibody)” registered an inhibition of the increased T-cell proliferation supported by MC38/B7-1 (Con A, 3H-thymidine) of 83%.
